In publication PMC7986633 (Angewandte Chemie (International Ed. in English), 2021):

B1: ACAD9 (residues 38–621), recombinant, purified (enzyme)
chain: AFAKELFLGKIKKKEVFPFPEVSQDELNEINQFLGPVEKFFTEEVDSRKIDQEGKIPDETLEKLKSLGLFGLQVPEEYGGLGFSNTMYSRLGEIISMDGSITVTLAAHQAIGLKGIILAGTEEQKAKYLPKLASGEHIAAFCLTEPASGSDAASIRSRATLSEDKKHYILNGSKVWITNGGLANIFTVFAKTEVVDSDGSVKDKITAFIVERDFGGVTNGKPEDKLGIRGSNTCEVHFENTKIPVENILGEVGDGFKVAMNILNSGRFSMGSVVAGLLKRLIEMTAEYACTRKQFNKRLSEFGLIQEKFALMAQKAYVMESMTYLTAGMLDQPGFPDCSIEAAMVKVFSSEAAWQCVSEALQILGGLGYTRDYPYERILRDTRILLIFEGTNEILRMYIALTGLQHAGRILTTRIHELKQAKVSTVMDTVGRRLRDSLGRTVDLGLTGNHGVVHPSLADSANKFEENTYCFGRTVETLLLRFGKTIMEEQLVLKRVANILINLYGMTAVLSRASRSIRIGLRNHDHEVLLANTFCVEAYLQNLFSLSQLDKYAPENLDEQIKKVSQQILEKRAYICAHPLDRTC
B2: ECSITCTD (C‐terminal fragment of ECSIT, residues 248–431), purified (domain or fragment)
chain: PLPKDSTGAADPPQPHIVGIQSPDQQAALARHNPARPVFVEGPFSLWLRNKCVYYHILRADLLPPEEREVEETPEEWNLYYPMQLDLEYVRSGWDNYEFDINEVEEGPVFAMCMAGAHDQATMAKWIQGLQETNPTLAQIPVVFRLAGSTRELQTSSAGLEEPPLPEDHQEEDDNLQRQQQGQS

How the values were obtained:
native MS = biological target: the molecule itself; assay: native MS
SEC-MALS + other: SAXS = biological target: the molecule itself; assay: SEC-MALS + other: SAXS

Protein | stoichiometry N (native MS) | stoichiometry N (SEC-MALS + other: SAXS)
B1 | 2 | 
B2 | ≥ 4 | 2
